{
  "source": "FireProtDB (doi:10.1021/bi982931h)",
  "details": "Geobacillus stearothermophilus, 25 °C, Urea, CD, Sodium phosphate 10 mM, reversible: yes, whole UniProt chain shown",
  "data": [
    {"protein": "Large ribosomal subunit protein bL9 wild type, P02417 (protein) MKVIFLKDVKGKGKKGEIKNVADGYANNFLFKQGLAIEATPANLKALEAQKQKEQRQAAEELANAKKLKEQLEKLTVTIPAKAGEGGRLFGSITSKQIAESLQAQHGLKLDKRKIELADAIRALGYTNVPVKLHPEVTATLKVHVTEQK", "values": [
      {"measurement": "unfolding free energy", "setting": "pH 2.4, NaCl 750 mM", "result": 2.9, "unit": "kcal/mol"},
      {"measurement": "unfolding free energy", "setting": "pH 2.79, NaCl 100 mM", "result": 2.3, "unit": "kcal/mol"},
      {"measurement": "unfolding free energy", "setting": "pH 3.15, NaCl 750 mM", "result": 3.1, "unit": "kcal/mol"},
      {"measurement": "unfolding free energy", "setting": "pH 3.55, NaCl 100 mM", "result": 3, "unit": "kcal/mol"},
      {"measurement": "unfolding free energy", "setting": "pH 4.14, NaCl 750 mM", "result": 4, "unit": "kcal/mol"},
      {"measurement": "unfolding free energy", "setting": "pH 4.51, NaCl 100 mM", "result": 3.5, "unit": "kcal/mol"},
      {"measurement": "unfolding free energy", "setting": "pH 5.25, NaCl 750 mM", "result": 4.8, "unit": "kcal/mol"},
      {"measurement": "unfolding free energy", "setting": "pH 5.99, NaCl 100 mM", "result": 4.4, "unit": "kcal/mol"},
      {"measurement": "unfolding free energy", "setting": "pH 6.56, NaCl 750 mM", "result": 4.7, "unit": "kcal/mol"},
      {"measurement": "unfolding free energy", "setting": "pH 6.98, NaCl 100 mM", "result": 4.5, "unit": "kcal/mol"},
      {"measurement": "unfolding free energy", "setting": "pH 7.26, NaCl 750 mM", "result": 5.2, "unit": "kcal/mol"}
    ]}
  ]
}
